Test results published in patent publication US20180155451A1 (published 2018).

T1: FcγRIIa R (human, UniProt P12318 34-217)
T1 construct: extracellular domain; also called FcgRIIa R type; 2aR
T1 sequence (looked up): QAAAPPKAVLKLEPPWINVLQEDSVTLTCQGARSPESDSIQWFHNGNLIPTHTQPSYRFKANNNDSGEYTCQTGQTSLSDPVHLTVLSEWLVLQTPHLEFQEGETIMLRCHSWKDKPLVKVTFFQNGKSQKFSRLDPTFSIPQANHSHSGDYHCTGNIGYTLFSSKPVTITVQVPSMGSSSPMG


Molecular target: T1, FcγRIIa R
Test: SPR Biacore; vs GpH7-A5/GpH7-B3/GpL16-k0 =100

He/Con_2aR	Binder
119 % of control	GpH7-A5/GpH7-B3 variant L328_09D/GpL16-k0 (antibody, human IgG1, kappa, also called He Ab L328_09D) heavy 1: not shown heavy 2: not shown light: DIVMTQSPLSLPVTPGEPASISCQASESLVHSNRNTYLHWYLQKPGQSPQLLIYKVSNRFSGVPDRFSGSGSGTDFTLKISRVEAEDVGVYYCSQNTHVPPTFGQGTKVEIERTVAAPSVFIFPPSDEQLKSGTASVVCLLNNFYPREAKVQWKVDNALQSGNSQESVTEQDSKDSTYSLSSTLTLSKADYEKHKVYACEVTHQGLSSPVTKSFNRGEC
119 % of control	GpH7-A5/GpH7-B3 variant L328_14T/GpL16-k0 (antibody, human IgG1, kappa, also called He Ab L328_14T) heavy 1: not shown heavy 2: not shown light: DIVMTQSPLSLPVTPGEPASISCQASESLVHSNRNTYLHWYLQKPGQSPQLLIYKVSNRFSGVPDRFSGSGSGTDFTLKISRVEAEDVGVYYCSQNTHVPPTFGQGTKVEIERTVAAPSVFIFPPSDEQLKSGTASVVCLLNNFYPREAKVQWKVDNALQSGNSQESVTEQDSKDSTYSLSSTLTLSKADYEKHKVYACEVTHQGLSSPVTKSFNRGEC
120 % of control	GpH7-A5/GpH7-B3 variant N325_04F/GpL16-k0 (antibody, human IgG1, kappa, also called He Ab N325_04F) heavy 1: not shown heavy 2: not shown light: DIVMTQSPLSLPVTPGEPASISCQASESLVHSNRNTYLHWYLQKPGQSPQLLIYKVSNRFSGVPDRFSGSGSGTDFTLKISRVEAEDVGVYYCSQNTHVPPTFGQGTKVEIERTVAAPSVFIFPPSDEQLKSGTASVVCLLNNFYPREAKVQWKVDNALQSGNSQESVTEQDSKDSTYSLSSTLTLSKADYEKHKVYACEVTHQGLSSPVTKSFNRGEC
116 % of control	GpH7-A5/GpH7-B3 variant N325_09D/GpL16-k0 (antibody, human IgG1, kappa, also called He Ab N325_09D) heavy 1: not shown heavy 2: not shown light: DIVMTQSPLSLPVTPGEPASISCQASESLVHSNRNTYLHWYLQKPGQSPQLLIYKVSNRFSGVPDRFSGSGSGTDFTLKISRVEAEDVGVYYCSQNTHVPPTFGQGTKVEIERTVAAPSVFIFPPSDEQLKSGTASVVCLLNNFYPREAKVQWKVDNALQSGNSQESVTEQDSKDSTYSLSSTLTLSKADYEKHKVYACEVTHQGLSSPVTKSFNRGEC
111 % of control	GpH7-A5/GpH7-B3 variant P331_04F/GpL16-k0 (antibody, human IgG1, kappa, also called He Ab P331_04F) heavy 1: not shown heavy 2: not shown light: DIVMTQSPLSLPVTPGEPASISCQASESLVHSNRNTYLHWYLQKPGQSPQLLIYKVSNRFSGVPDRFSGSGSGTDFTLKISRVEAEDVGVYYCSQNTHVPPTFGQGTKVEIERTVAAPSVFIFPPSDEQLKSGTASVVCLLNNFYPREAKVQWKVDNALQSGNSQESVTEQDSKDSTYSLSSTLTLSKADYEKHKVYACEVTHQGLSSPVTKSFNRGEC
143 % of control	GpH7-A5/GpH7-B3 variant N325_13S/GpL16-k0 (antibody, human IgG1, kappa, also called He Ab N325_13S) heavy 1: not shown heavy 2: not shown light: DIVMTQSPLSLPVTPGEPASISCQASESLVHSNRNTYLHWYLQKPGQSPQLLIYKVSNRFSGVPDRFSGSGSGTDFTLKISRVEAEDVGVYYCSQNTHVPPTFGQGTKVEIERTVAAPSVFIFPPSDEQLKSGTASVVCLLNNFYPREAKVQWKVDNALQSGNSQESVTEQDSKDSTYSLSSTLTLSKADYEKHKVYACEVTHQGLSSPVTKSFNRGEC
148 % of control	GpH7-A5/GpH7-B3 variant P238_09D/GpL16-k0 (antibody, human IgG1, kappa, also called He Ab P238_09D) heavy 1: not shown heavy 2: not shown light: DIVMTQSPLSLPVTPGEPASISCQASESLVHSNRNTYLHWYLQKPGQSPQLLIYKVSNRFSGVPDRFSGSGSGTDFTLKISRVEAEDVGVYYCSQNTHVPPTFGQGTKVEIERTVAAPSVFIFPPSDEQLKSGTASVVCLLNNFYPREAKVQWKVDNALQSGNSQESVTEQDSKDSTYSLSSTLTLSKADYEKHKVYACEVTHQGLSSPVTKSFNRGEC
105 % of control	GpH7-A5/GpH7-B3 variant N325_10E/GpL16-k0 (antibody, human IgG1, kappa, also called He Ab N325_10E) heavy 1: not shown heavy 2: not shown light: DIVMTQSPLSLPVTPGEPASISCQASESLVHSNRNTYLHWYLQKPGQSPQLLIYKVSNRFSGVPDRFSGSGSGTDFTLKISRVEAEDVGVYYCSQNTHVPPTFGQGTKVEIERTVAAPSVFIFPPSDEQLKSGTASVVCLLNNFYPREAKVQWKVDNALQSGNSQESVTEQDSKDSTYSLSSTLTLSKADYEKHKVYACEVTHQGLSSPVTKSFNRGEC
139 % of control	GpH7-A5/GpH7-B3 variant P238_06M/GpL16-k0 (antibody, human IgG1, kappa, also called He Ab P238_06M) heavy 1: not shown heavy 2: not shown light: DIVMTQSPLSLPVTPGEPASISCQASESLVHSNRNTYLHWYLQKPGQSPQLLIYKVSNRFSGVPDRFSGSGSGTDFTLKISRVEAEDVGVYYCSQNTHVPPTFGQGTKVEIERTVAAPSVFIFPPSDEQLKSGTASVVCLLNNFYPREAKVQWKVDNALQSGNSQESVTEQDSKDSTYSLSSTLTLSKADYEKHKVYACEVTHQGLSSPVTKSFNRGEC
106 % of control	GpH7-A5/GpH7-B3 variant P331_02A/GpL16-k0 (antibody, human IgG1, kappa, also called He Ab P331_02A) heavy 1: not shown heavy 2: not shown light: DIVMTQSPLSLPVTPGEPASISCQASESLVHSNRNTYLHWYLQKPGQSPQLLIYKVSNRFSGVPDRFSGSGSGTDFTLKISRVEAEDVGVYYCSQNTHVPPTFGQGTKVEIERTVAAPSVFIFPPSDEQLKSGTASVVCLLNNFYPREAKVQWKVDNALQSGNSQESVTEQDSKDSTYSLSSTLTLSKADYEKHKVYACEVTHQGLSSPVTKSFNRGEC
107 % of control	GpH7-A5/GpH7-B3 variant N325_01G/GpL16-k0 (antibody, human IgG1, kappa, also called He Ab N325_01G) heavy 1: not shown heavy 2: not shown light: DIVMTQSPLSLPVTPGEPASISCQASESLVHSNRNTYLHWYLQKPGQSPQLLIYKVSNRFSGVPDRFSGSGSGTDFTLKISRVEAEDVGVYYCSQNTHVPPTFGQGTKVEIERTVAAPSVFIFPPSDEQLKSGTASVVCLLNNFYPREAKVQWKVDNALQSGNSQESVTEQDSKDSTYSLSSTLTLSKADYEKHKVYACEVTHQGLSSPVTKSFNRGEC
174 % of control	GpH7-A5/GpH7-B3 variant P238_04F/GpL16-k0 (antibody, human IgG1, kappa, also called He Ab P238_04F) heavy 1: not shown heavy 2: not shown light: DIVMTQSPLSLPVTPGEPASISCQASESLVHSNRNTYLHWYLQKPGQSPQLLIYKVSNRFSGVPDRFSGSGSGTDFTLKISRVEAEDVGVYYCSQNTHVPPTFGQGTKVEIERTVAAPSVFIFPPSDEQLKSGTASVVCLLNNFYPREAKVQWKVDNALQSGNSQESVTEQDSKDSTYSLSSTLTLSKADYEKHKVYACEVTHQGLSSPVTKSFNRGEC
108 % of control	GpH7-A5/GpH7-B3 variant N325_03V/GpL16-k0 (antibody, human IgG1, kappa, also called He Ab N325_03V) heavy 1: not shown heavy 2: not shown light: DIVMTQSPLSLPVTPGEPASISCQASESLVHSNRNTYLHWYLQKPGQSPQLLIYKVSNRFSGVPDRFSGSGSGTDFTLKISRVEAEDVGVYYCSQNTHVPPTFGQGTKVEIERTVAAPSVFIFPPSDEQLKSGTASVVCLLNNFYPREAKVQWKVDNALQSGNSQESVTEQDSKDSTYSLSSTLTLSKADYEKHKVYACEVTHQGLSSPVTKSFNRGEC
134 % of control	GpH7-A5/GpH7-B3 variant N325_20W/GpL16-k0 (antibody, human IgG1, kappa, also called He Ab N325_20W) heavy 1: not shown heavy 2: not shown light: DIVMTQSPLSLPVTPGEPASISCQASESLVHSNRNTYLHWYLQKPGQSPQLLIYKVSNRFSGVPDRFSGSGSGTDFTLKISRVEAEDVGVYYCSQNTHVPPTFGQGTKVEIERTVAAPSVFIFPPSDEQLKSGTASVVCLLNNFYPREAKVQWKVDNALQSGNSQESVTEQDSKDSTYSLSSTLTLSKADYEKHKVYACEVTHQGLSSPVTKSFNRGEC
117 % of control	GpH7-A5/GpH7-B3 variant L328_13S/GpL16-k0 (antibody, human IgG1, kappa, also called He Ab L328_13S) heavy 1: not shown heavy 2: not shown light: DIVMTQSPLSLPVTPGEPASISCQASESLVHSNRNTYLHWYLQKPGQSPQLLIYKVSNRFSGVPDRFSGSGSGTDFTLKISRVEAEDVGVYYCSQNTHVPPTFGQGTKVEIERTVAAPSVFIFPPSDEQLKSGTASVVCLLNNFYPREAKVQWKVDNALQSGNSQESVTEQDSKDSTYSLSSTLTLSKADYEKHKVYACEVTHQGLSSPVTKSFNRGEC
104 % of control	GpH7-A5/GpH7-B3 variant P271_08L/GpL16-k0 (antibody, human IgG1, kappa, also called He Ab P271_08L) heavy 1: not shown heavy 2: not shown light: DIVMTQSPLSLPVTPGEPASISCQASESLVHSNRNTYLHWYLQKPGQSPQLLIYKVSNRFSGVPDRFSGSGSGTDFTLKISRVEAEDVGVYYCSQNTHVPPTFGQGTKVEIERTVAAPSVFIFPPSDEQLKSGTASVVCLLNNFYPREAKVQWKVDNALQSGNSQESVTEQDSKDSTYSLSSTLTLSKADYEKHKVYACEVTHQGLSSPVTKSFNRGEC
101 % of control	GpH7-A5/GpH7-B3 variant N325_15Y/GpL16-k0 (antibody, human IgG1, kappa, also called He Ab N325_15Y) heavy 1: not shown heavy 2: not shown light: DIVMTQSPLSLPVTPGEPASISCQASESLVHSNRNTYLHWYLQKPGQSPQLLIYKVSNRFSGVPDRFSGSGSGTDFTLKISRVEAEDVGVYYCSQNTHVPPTFGQGTKVEIERTVAAPSVFIFPPSDEQLKSGTASVVCLLNNFYPREAKVQWKVDNALQSGNSQESVTEQDSKDSTYSLSSTLTLSKADYEKHKVYACEVTHQGLSSPVTKSFNRGEC
144 % of control	GpH7-A5/GpH7-B3 variant N325_08L/GpL16-k0 (antibody, human IgG1, kappa, also called He Ab N325_08L) heavy 1: not shown heavy 2: not shown light: DIVMTQSPLSLPVTPGEPASISCQASESLVHSNRNTYLHWYLQKPGQSPQLLIYKVSNRFSGVPDRFSGSGSGTDFTLKISRVEAEDVGVYYCSQNTHVPPTFGQGTKVEIERTVAAPSVFIFPPSDEQLKSGTASVVCLLNNFYPREAKVQWKVDNALQSGNSQESVTEQDSKDSTYSLSSTLTLSKADYEKHKVYACEVTHQGLSSPVTKSFNRGEC
105 % of control	GpH7-A5/GpH7-B3 variant N325_14T/GpL16-k0 (antibody, human IgG1, kappa, also called He Ab N325_14T) heavy 1: not shown heavy 2: not shown light: DIVMTQSPLSLPVTPGEPASISCQASESLVHSNRNTYLHWYLQKPGQSPQLLIYKVSNRFSGVPDRFSGSGSGTDFTLKISRVEAEDVGVYYCSQNTHVPPTFGQGTKVEIERTVAAPSVFIFPPSDEQLKSGTASVVCLLNNFYPREAKVQWKVDNALQSGNSQESVTEQDSKDSTYSLSSTLTLSKADYEKHKVYACEVTHQGLSSPVTKSFNRGEC
133 % of control	GpH7-A5/GpH7-B3 variant N325_07I/GpL16-k0 (antibody, human IgG1, kappa, also called He Ab N325_07I) heavy 1: not shown heavy 2: not shown light: DIVMTQSPLSLPVTPGEPASISCQASESLVHSNRNTYLHWYLQKPGQSPQLLIYKVSNRFSGVPDRFSGSGSGTDFTLKISRVEAEDVGVYYCSQNTHVPPTFGQGTKVEIERTVAAPSVFIFPPSDEQLKSGTASVVCLLNNFYPREAKVQWKVDNALQSGNSQESVTEQDSKDSTYSLSSTLTLSKADYEKHKVYACEVTHQGLSSPVTKSFNRGEC
120 % of control	GpH7-A5/GpH7-B3 variant P238_03V/GpL16-k0 (antibody, human IgG1, kappa, also called He Ab P238_03V) heavy 1: not shown heavy 2: not shown light: DIVMTQSPLSLPVTPGEPASISCQASESLVHSNRNTYLHWYLQKPGQSPQLLIYKVSNRFSGVPDRFSGSGSGTDFTLKISRVEAEDVGVYYCSQNTHVPPTFGQGTKVEIERTVAAPSVFIFPPSDEQLKSGTASVVCLLNNFYPREAKVQWKVDNALQSGNSQESVTEQDSKDSTYSLSSTLTLSKADYEKHKVYACEVTHQGLSSPVTKSFNRGEC
105 % of control	GpH7-A5/GpH7-B3 variant L328_10E/GpL16-k0 (antibody, human IgG1, kappa, also called He Ab L328_10E) heavy 1: not shown heavy 2: not shown light: DIVMTQSPLSLPVTPGEPASISCQASESLVHSNRNTYLHWYLQKPGQSPQLLIYKVSNRFSGVPDRFSGSGSGTDFTLKISRVEAEDVGVYYCSQNTHVPPTFGQGTKVEIERTVAAPSVFIFPPSDEQLKSGTASVVCLLNNFYPREAKVQWKVDNALQSGNSQESVTEQDSKDSTYSLSSTLTLSKADYEKHKVYACEVTHQGLSSPVTKSFNRGEC
